Measured values published in patent publication US20080269139A1 (GENENCOR INTERNATIONAL, published 2008).
Substitutions are numbered along the chain they refer to.

B1: 2H9 peptide-BLA fusion (other)
chain: CHYLLTNYCTPVSEKQLAEVVANTITPLMKAQSVPGMAVAVIYQGKPHYYTFGKADIAANKPVTPQTLFELGSISKTFTGVLGGDAIARGEISLDDAVTRYWPQLTGKQWQGIRMLDLATYTAGGLPLQVPDEVTDNASLLRFYQNWQPQWKPGTTRLYANASIGLFGALAVKPSGMPYEQAMTTRVLKPLKLDHTWINVPKAEEAHYAWGYRDGKAVRVSPGMLDAQAYGVKTNVQDMANWVMANMAPENVADASLKQGIALAQSRYWRIGSMYQGLGWEMLNWPVEANTVVEGSDSKVALAPLPVAEVNPPAPPVKASWVHKTGSTGGFGSYVAFIPEKQIGIVMLANTSYPNPARVEAAYHILEALQHHHHHH
B2: 1A6 peptide-BLA fusion (other)
chain: B1 chain with H2E, Y3E, L4I, L5W, N7M, Y8L
B3: 2E2 peptide-BLA fusion (other)
chain: B1 chain with H2L, Y3T, L4V, T6W, N7T, Y8T
B4: 2H10 peptide-BLA fusion (other)
chain: B1 chain with H2R, Y3I, L4H, T6A, N7H, Y8K

What follows are binders tested against T1, FGF-5 (UniProt P12034 23-268, limits assumed, biotinylated with EZ-Link Sulfo-NHS-Biotin in the BioVeris assay only) (assay: BLA binding assay, purified peptide-BLA fusion on FGF-5-coated plate, nitrocefin).
T1 construct: also called bFGF5 (biotinylated, BioVeris assay); FGF-5, carrier-free (R&D Systems #237-F5/CF)
T1 sequence (looked up): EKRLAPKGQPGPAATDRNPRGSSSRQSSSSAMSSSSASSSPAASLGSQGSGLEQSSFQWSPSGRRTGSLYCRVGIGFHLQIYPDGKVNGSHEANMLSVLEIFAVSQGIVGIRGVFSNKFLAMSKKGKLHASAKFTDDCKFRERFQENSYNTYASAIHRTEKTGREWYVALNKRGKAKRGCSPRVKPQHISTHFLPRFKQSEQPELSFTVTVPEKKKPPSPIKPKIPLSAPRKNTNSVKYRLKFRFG

Row | Binder | Percent Bound at 0.1 nM [%]
1 | B1 | 5
2 | B2 | 8
3 | B3 | 7
4 | B4 | 8
